These are literature values, as cited in PMC4480918.

Holding throughout (experiment): NMR
In one data set the target is His80 (UniProt position 121, KELYGHTLVWH). As to conditions: free enzyme (not the 2FCb glycosyl-enzyme intermediate).
A further data set relates to His92. As to conditions: redox state not stated.
In a further data set the test system is His61. Conditions: redox state not stated.

As for “Catalytic domain of beta-(1,4)-glycosidase Cex (CexCD) (Cellulomonas fimi)”, in the data set with His80, the pKa (commonly the pH at which an ionisable group is half protonated) was 7.9.

Regarding “Plastocyanin (A.v. Pc) (Anabaena variabilis)”, the pKa with His92 was 5.1; with His61, 7.1.
